Experiment: soluble on expression in E. coli; label from the status in PepcDB or PDB records

Sequence | soluble on expression in E. coli
MAHHHHHHMNFLGGSLRSGGGHRREKGFSAKNKVQQYHGDGSESIVLAGRPFRVLQKISDVPPPYMVTRQRSTKYGEGGSSYVYLVENTSHLPEFPRHLALKRSFFGVDQVMEAHKEVEIVSRIEDKNIVCVYHSEISRSEGRLGVSIAMEYCSNNLYHRIRSSAGTGIVTRLTEAEICHVMFAVTSAVGYLHAQQPPITHRDIRPENILINNKHAGPTAYKLTNFGNATTEAYQCETREEANMAIADIQMHTNPAFRAPEMADPWSKKRICEKTDMWSMGVLLYYMMYMSLPFDPSTTIVKDWALTFPSEATASYTPSLRVITEHLLDPDPCSRWDVFALINYMRFDEDCSRHLGTFCFTKTEWPEGWEEHDVKVLGRTPPPKAPPVSYNEPGHEQLDSRGLRGQERVHGHTNGHQPPDDRGNGRDSAVVDGAAVQEAMIVLGGDPADDDPAVAKYRHQIIMVQQEAWRRAKAAAGLRDSPPTEPQESSAAPAPTRANNEAQKDVFDDLFASASPTVFPTSQASPAMGPSAPPATHQPPEKDVFSASDLFSTSAPQLDPSYPVMNTYGQAPQQMAMGGWGSGAPVMGSGGYPMQQPQNQQQAPWGYGVSNANNYAPPLPPQQQQQQQLQPFTNFLPPLSGQQPGQQQSQQQETSQPRTARATAKRDPFADLFN | not soluble
MSAGKTGNHLMISDSKLLASAAWDAQSLNELKAKAGEDPAANIRPVARQVEGMFVQMMLKSMRDALPKDGLFSSEHTRLYTSMYDQQIAQQMTAGKGLGLAEMMVKQMTPEQPLPEEPTPAAPMKFPLETVVRYQNQALSQLVQKAVPRNYDDSLPGNSKAFLAQLSLPAQLASQQSGVPHHLILAQAALESGWGQRQIRRENGEPSYNLFGVKASGNWKGPVTEITTTEYENGEAKKVKAKFRVYSSYLEALSDYVGLLTRNPRYAAVTTAASAEQGAQALQDAGYATDPHYARKLTNMIQQMKSISDKVSKTYSMNIDNLF | soluble
MSTVNVQIGLHELLNGSNAQIQLSVPQLVEKVLMRNEGKLTSTGAVSASTGKYTGRSPKDKFIVKEASVADKIAWGAVNQPISEEHFNKLYTKVLEYLKEKEELFVFKGFAGADRNYRLPIQVINEYAWHNLFVHQLFIRPTEEELTTHESEFTIVSAPNFKADPAVDGTNSEAFIMVSFEKRIVLIGGTEYAGEMKKSIFSIMNFLLPEQDILSMHCSANVGEEGDVALFFGLSGTGKTTLSADPNRKLIGDDEHGWSDNGVFNIEGGCYAKCVNLSHEKEPQIFDAITFGSVLENVIINDQTRIADYNDTTLTENTRAAYPMHAIDNIILPSVAGHPNTIIFLTADASGVLPPISKLSKEQAMYHFLSGYTSKLAGTERGVTSPQATFSTCFGSPFLPLDASRYAEMLGEKIEKHDAKVFLVNTGWTGGEYGVGKRMNLGYTRAMIQAALNGELAKTETAKHDIFGLEVPLHVPGVPDEVLMPEQTWADKAAYKAKAIELANEFKANFKKFDSVSEDIINLGGPIA | not soluble
MAKARAIVITGNGTNCEMEAAHACRLGGFDETVIAHISDILTGEIRLDDFHFLNLTGGFLDGDDLGSAKAQANRFRYARVDDLEEHLIDQIIRFIDAGKLILGVCNGFQLMTKMGLLPAVDGAYLAQTATLTFNACGRFQDRWVYLKVDQASPSIYTKGVETGLYLPIRHGEGKFVVDSPATLAAIEAKHLAVFTYSDETYSAPTMEFPLNPNGSVNAIAAVCNESGRLMGMMPHPEAFLHRTNHPRWTREDLPEEGDGLVLFRNAADYAKANLLLEHHHHHH | not soluble
MGSDKIHHHHHHMKLEFTCGEEITIKEVNKLKLELMTSGKGDVEKELERLKKNKNKVHDIKTEETIDLLDRCAKLWLDDNYSKKHIETLAQITNQSFELVNYEFKSMMQMLLRENIQNTIKRELGEVDILDSWHKTNYGYEHRQPRGIIFHNISGNAFVVIPMSISMGLLSKNCNLVKVSKDEPYFAYAFYKSLCELDETVKDRLSVLYFDSSKTEIYDTIVKNSDGVIHWGGEYSSRIIGEMCAKYQKHMIMHGAKISFEVVDKCDDLNKVSEEIAKDIICWEQKACLSPRVVFLNDKIDVDEFSHCLSASLRKITEVIPKAYLSEWNSVKTIQDRQYCTLKYGMKNERRFKVYSSFNADYTVILSDGMPEKEDINKCFYRFIFVCPYSSKSDVVNYVSENLKDYLQTMGYSGNDEEFIEKMTLLGVSIVTKPGKMSLHEPGTSHDGIHNLKEFTFLVSRQI | not soluble
HDDGLPAFRYSAELLGQLQLPSVALPLNDDLFLYGRDAEAFDLEAYLALNAPALRDKSEYLEHWSGYYSINPKVLLTLMVMQSGPLGAPDERALAAPLGRLSAKRGFDAQVRDVLQQLSRRYYGFEEYQLRQAAARKAVGEDGLNAASAALLGLLREGAKVSAVQGGNPLGAYAQTFQRLFGTPAAELLQPSNRVARQLQAKAALAPPSNLMQLPWRQGYSWQPNGAHSNTGSGYPYSSFDASYDWPRWGSATYSVVAAHAGTVRVLSRCQVRVTHPSGWATNYYHMDQIQVSNGQQVSADTKLGVYAGNINTALCEGGSSTGPHLHFSLLYNGAFVSLQGASFGPYRINVGTSNYDNDCRRYYFYNQSAGTTHCAFR | not soluble
GSHSLRYFDIAVSRPGLGEPRYISVGYVDDTEFARYDSDAENRRYQPRARWMEREGPEYWERNTPIYKGKEQTFRVNLRTLRGYYNQSEGGSHTIQEMYGCDVGSDGSLLRGYEQFAYDGRDYIALNEDLKTWTAADFAARISRNKLERDGFADLHRAYLEGECVESLRRYLELGKETLLRSDPPKAHVTLHPRPEGDVTLRCWALGFYPADITLTWQLNGEDLTQDMELVETRPAGDGTFQKWASVVVPLGKEQNYTCRVEHEGLPKPLSQRWEPLEHHHHHH | soluble
MTITPATHAISINPATGEQLSVLPWAGADDIENALQLAAAGFRDWRETNIDYRAEKLRDIGKALRARSEEMAQMITREMGKPINQARAEVAKSANLCDWYAEHGPAMLKAEPTLVENQQAVIEYRPLGTILAIMPWNFPLWQVMRGAVPIILAGNGYLLKHAPNVMGCAQLIAQVFKDAGIPQGVYGWLNADNDGVSQMIKDSRIAAVTVTGSVRAGAAIGAQAGAALKKCVLELGGSDPFIVLNDADLELAVKAAVAGRYQNTGQVCAAAKRFIIEEGIASAFTERFVAAAAALKMGDPRDEENALGPMARFDLRDELHHQVEKTLAQGARLLLGGEKMAGAGNYYPPTVLANVTPEMTAFREEMFGPVAAITIAKDAEHALELANDSEFGLSATIFTTDETQARQMAARLECGGVFINGYCASDARVAFGGVKKSGFGRELSHFGLHEFCNIQTVWKDRI | soluble
MGSDKIHHHHHHMKRSIEDTPVVFLGAGNLATNLAKALYRKGFRIMQVYSRTEESARTLANEVEAEYITDLKDVSNEARLYIISLKDAAFVELLPQITDGKQHALLVHTAGSIPMNIWEGHAERYGVFYPMQTFSKQREVDFREVPFFIEAKRPEDTELLKAVAGTLSDKVYEADSEQRRSLHLAAVFTCNFTNHMYALAAELLEKYHLPFDVMLPLIDETARKVHELAPRDAQTGPAVRYDENVMNKHLSMLADSQALQEIYKLMSKSIHEHHQL | not soluble
MSLGLINPDFQTLPELFTSVFSHFKGQPDKAPIARKINGAYSPISYDSLAEDCRHFAAYLKERGIEPGDRVAILSENRPGWYLADIAILSLGATDVPLYPSLPPNQIEYILNNCSAKGIIVSNMLQLGKILSIWPKLPELNMVIVMNKLDEPVEDVIDLSQAKTEGKKVLEAKPWLLDGIKSNPDDVATLIYTSGTTGLPKGVMLTHRNICENVKSCSTVIRIDQTDSSLSFLPLSHAYERTGGYYLMFACGARINLAESVETISLNISEAKPTIIFTVPRLFDRMKASILKSVTSEGGVKEKIFFWAVSTGEKYHKQLATGKVSPLLAVQHNLADKLVYSKIRKKFGGKLRYFVSGGAALPQKTGEFFQSIGITILEGFGLTETSPVTNVNRPEKVKFGTVGLPVKNVEVKIAPDGEIMLKGPNIMKGYWKDEAASAEVLRDGWLYTGDIGEVDSEGYLKITDRKKHIIVTSGGKNIAPLQIENLILDSPYVDQAMIVGEKRPFLIALIVPDFLKLRDFAAEHQIKASSTKELINTKEVIEVYEKLLKSISRQLATHEKVRKFLLLEEPFSIENGMMTPTLKLKRKEITTKFSAEIDNLYNTLNMVYNTEGHHHHHH | soluble
SAATVPATTRSDQTWDFSCNLDVSFESEEHALIAYTSLAVDKELQPDKVRRVMSVSNNKLSVHFEAIEARLLRASFSAFVDVLTLATRTIQEFGQK | soluble
MGSSHHHHHHSSGLVPRGSHMISNKLANIPDSYFGKTMGRKIEHGPLPLINMAVGIPDGPTPQGIIDHFQKALTIPENQKYGAFHGKEAFKQAIVDFYQRQYNVTLDKEDEVCILYGTKNGLVAVPTCVINPGDYVLLPDPGYTDYLAGVLLADGKPVPLNLEPPHYLPDWSKVDSQIIDKTKLIYLTYPNNPTGSTATKEVFDEAIAKFKGTDTKIVHDFAYGAFGFDAKNPSILASENGKDVAIEIYSLSKGYNMSGFRVGFAVGNKDMIQALKKYQTHTNAGMFGALQDAAIYALNHYDDFLEEQSNVFKTRRDRFEAMLAKADLPFVHAKGGIYVWLETPPGYDSEQFEQFLVQEKSILVAPGKPFGENGNRYVRISLALDDQKLDEAAIRLTELAYLYE | soluble
MATTQQSSTKQDILEYLLKEVQATSLELAEVLEVSPQAIRRHLKDLETDNLVVYFVPEQVGMGRPQHLYQLSQRGREQLQRNVNRLSDGYGDFAVSLLDTLAATVGREQVKTILQKQWERKAQEYRERVGTGSLQERVANLVELRKAEGFMAEFYPVESDSAHSERFIFMEHTCAISNVAESFPSICGHELEMFAAILPDCTVKRTHWLIDGEHRCGYLVQRSSGVTGVTEVEN | not soluble
MGHHHHHHSHSTKDRKIIPLKMCFAARNLSMPDLENRLIELHSPDSRNTLILRCKDTATAHSWFVAIHTNIMALLPQVLAELNAMLGATSTAGGSKEVKHIAWLAEQAKLDGGRQQWRPVLMAVTEKDLLLYDCMPWTRDAWASPCHSYPLVATRLVHSGSGCRSPSLGSDLTFATRTGSRQGIEMHLFRVETHRDLSSWTRILVQGCHAAAEL | not soluble
MHYPEPISKLIDSFMKLPGIGPKTAQRLAFHTLDMKEDDVVQFAKALVDVKRELTYCSVCGHITENDPCYICEDKQRDRSVICVVEDDKDVIAMEKMREYKGLYHVLHGSISPMDGIGPEDINIPSLIERLKSDEVSELILAMNPNLEGESTAMYISRLVKPIGIKVTRLAQGLSVGGDLEYADEVTLSKAIAGRTEM | not soluble
MGSDKIHHHHHHMGKARRGLQRGNGVHRHEAVRMFISLREIAPQGGLGPPRQLAGRRIAHVLDQAFRVALEVSARCHAVRVAHRVKSFVCTQQSRFVMGRQRLASMAHLRQNPPMAKLYFNYSTMNAGKSTLLLQASYNYIERGMQTYLLTANFDDRAGMGRIGSRIGIEAEADTYTQSDDLFAKIDARLKAGPCACVLVDEAQWMTRDQVWQLARAVDDLGVPVMCYGLRVDFRGELFPGSAALLALADEMREVRTICHCGRKATMVIRVGEDGNALAEGAQIEVGGNDRYISLCRKHFREAVGDVPV | not soluble
MVNQLIEPYGGTLVNLIDPEKREALKHEALSLPSLDLDWQQQCELEMLMTGAYSPLTGFMTRAQCARVESAQQLDDGSFWPSPITLTSRDRALADRRPGERLALRDGEGYMLAILTLSDVWKDGERWHLAGEVEGAALPPHPDFVSLRATPAELRALFVRRGWRRIIAWQARQPMHRAQYEFCLKSAIENEANLLLHPQVGGDITEAPAYFGLVRSFLAIRDRFPAATTQLSLLPAPPPEASGRALLLRAIVARNFGCSLLIAGGEHQPDGGDCRRGEDLTQNRVDPSVAERAEKIGVRLIAYPRMVYVEDRAEHLPEAEAPQGARLLTLSGEEFQRRMRAGLKIPEWYSFPEVLAELHRQTPPRERQGFTVFFTGLSGAGKSTLARALAARLMEMGGRCVTLLDGDIVRRHLSSELGFSKAHRDVNVRRIGFVASEITKNRGIAICAPIAPYRQTRRDVRAMIEAVGGFVEIHVATPIETCESRDRKGLYAKARAGLIPEFTGVSDPYEVPETPELAIDTTGLAIDEAVQQILLKLEHEGYLRLEHHHHHH | soluble

From the DeepSol protein solubility set
